# Assay results from patent US7119077B1, “Multimeric forms of members of the steroid/thyroid superfamily of receptors with the ultraspiracle receptor” (The Salk Institute for Biological Studies, priority 1990, dated 2006).
# B1: βRARE (DR5) (dsDNA)
# DNA 1: GGTTCACCGAAAGTTCA
# DNA 2: TGAACTTTCGGTGAACC
# B2: 11N-EcRE (dsDNA)
# DNA 1: ATGCTGTGCATTGAACGTGCTCGA
# DNA 2: TCGAGCACGTTCAATGCACAGCAT
# Columns and labels:
# ultraspiracle (usp) = biological target: T1, ultraspiracle (usp) (Drosophila melanogaster, UniProt P20153 SEQ:1-513); assay: EMSA; usp alone; conditions: label: 32P
# T1 sequence: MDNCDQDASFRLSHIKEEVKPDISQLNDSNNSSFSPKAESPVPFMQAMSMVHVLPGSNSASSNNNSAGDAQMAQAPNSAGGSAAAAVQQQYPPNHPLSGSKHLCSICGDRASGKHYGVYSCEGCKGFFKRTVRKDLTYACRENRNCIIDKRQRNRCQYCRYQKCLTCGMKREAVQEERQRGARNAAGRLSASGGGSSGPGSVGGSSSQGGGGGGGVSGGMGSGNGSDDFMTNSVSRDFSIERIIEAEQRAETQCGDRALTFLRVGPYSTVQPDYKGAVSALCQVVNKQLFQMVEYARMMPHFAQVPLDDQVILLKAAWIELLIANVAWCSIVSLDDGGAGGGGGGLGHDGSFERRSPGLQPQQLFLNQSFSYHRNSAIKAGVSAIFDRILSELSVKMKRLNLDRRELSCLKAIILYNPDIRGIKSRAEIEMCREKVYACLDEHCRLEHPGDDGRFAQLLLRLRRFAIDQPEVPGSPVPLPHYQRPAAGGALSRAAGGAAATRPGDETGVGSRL
# Protocol: (§1) For gel mobility shift assay, proteins were incubated with binding buffer, which contained 100 mM KCl, 7.5% glycerol, 20 mM HEPES pH 7.5, 2 mM DTT and 0.1% NP-40, on ice for 20 minutes in the presence of 2 μg of nonspecific competitor poly dI-dC and other oligo competitors. Then approximately 1 ng of ^32P-dCTP probe, which was labelled to specific activity about 1-5×10^8 cpm/μg by fill-in reaction with Klenow fragments, was added to the reaction and incubated at room temperature for 20 minutes. Antiserum or preimmune serum was added 10 minutes after the probe was added. The reaction was then loaded into 5% non-denaturing polyacrylamide gel in 0.5×TBE running buffer [1×TBE comprises 0.089 M Tris borate, 0.089 M boric acid and 0.002 M EDTA]. After electrophoresis, the gel was dried for autoradiography.
# (§2) Neither in vitro translated usp alone, nor RARα alone, bound to a βRARE probe. However, when the two proteins were incubated together, a prominent retarded complex appeared. This complex comigrated with the complex detected in the RAR and cell extract mixing experiments. […] Either the affinity purified usp antibody, or the RARα, specifically affected the protein/ DNA complex, while preimmune sera had no effect. […]
# RARα (human) = biological target: T2, RARα (human) (Homo sapiens, UniProt P10276 P10276:1-462); assay: EMSA; RARα alone; conditions: label: 32P
# T2 sequence: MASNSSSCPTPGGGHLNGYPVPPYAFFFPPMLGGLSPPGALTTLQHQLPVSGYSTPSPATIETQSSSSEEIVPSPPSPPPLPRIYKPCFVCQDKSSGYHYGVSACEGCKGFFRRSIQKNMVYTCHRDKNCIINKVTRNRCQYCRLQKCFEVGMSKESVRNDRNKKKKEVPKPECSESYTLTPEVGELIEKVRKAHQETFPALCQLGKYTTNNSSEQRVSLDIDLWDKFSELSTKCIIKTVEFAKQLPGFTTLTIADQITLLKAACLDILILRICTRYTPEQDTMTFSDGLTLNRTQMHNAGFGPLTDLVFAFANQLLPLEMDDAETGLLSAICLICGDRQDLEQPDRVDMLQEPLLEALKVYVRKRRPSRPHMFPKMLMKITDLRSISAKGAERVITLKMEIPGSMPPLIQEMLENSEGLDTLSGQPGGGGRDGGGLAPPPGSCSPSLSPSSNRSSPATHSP
# Protocol: as §1
# In gel mobility shift assays using a ^32P-labelled natural RAR response element—βRARE [see SEQ ID NO:15, see also de The et al., in Nature Vol. 343:177–180 (1990); and Sucov et al., in Proc. Natl. Acad. Sci. USA Vol. 87:5392–5398 (1990)] as the probe, in vitro translated RARα was incubated with probe under binding conditions either alone or with 2 µg of S2 extracts or embryo extracts.
# Neither in vitro translated usp alone, nor RARα alone, bound to a βRARE probe. […] This complex comigrated with the complex detected in the RAR and cell extract mixing experiments. […]
# usp/RARα heterodimer = biological target: T3, usp/RARα heterodimer (Drosophila melanogaster / Homo sapiens, UniProt P20153;P10276 P20153:1-508,P10276:1-462); assay: EMSA; prominent complex; affected by usp and RARα antibodies; conditions: label: 32P
# T3 sequence 1: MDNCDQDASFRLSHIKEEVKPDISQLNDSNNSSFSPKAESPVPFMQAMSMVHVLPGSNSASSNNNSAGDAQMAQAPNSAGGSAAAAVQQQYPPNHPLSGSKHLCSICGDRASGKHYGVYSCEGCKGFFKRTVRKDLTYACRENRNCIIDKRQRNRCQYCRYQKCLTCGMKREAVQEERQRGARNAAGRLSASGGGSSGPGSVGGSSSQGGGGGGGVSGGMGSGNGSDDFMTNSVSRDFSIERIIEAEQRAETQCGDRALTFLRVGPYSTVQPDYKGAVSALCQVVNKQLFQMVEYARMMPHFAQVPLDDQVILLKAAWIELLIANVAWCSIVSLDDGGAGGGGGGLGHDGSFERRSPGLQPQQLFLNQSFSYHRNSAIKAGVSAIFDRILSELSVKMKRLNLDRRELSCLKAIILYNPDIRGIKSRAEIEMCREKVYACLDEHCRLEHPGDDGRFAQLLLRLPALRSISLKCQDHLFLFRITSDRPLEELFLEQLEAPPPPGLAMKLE
# T3 sequence 2: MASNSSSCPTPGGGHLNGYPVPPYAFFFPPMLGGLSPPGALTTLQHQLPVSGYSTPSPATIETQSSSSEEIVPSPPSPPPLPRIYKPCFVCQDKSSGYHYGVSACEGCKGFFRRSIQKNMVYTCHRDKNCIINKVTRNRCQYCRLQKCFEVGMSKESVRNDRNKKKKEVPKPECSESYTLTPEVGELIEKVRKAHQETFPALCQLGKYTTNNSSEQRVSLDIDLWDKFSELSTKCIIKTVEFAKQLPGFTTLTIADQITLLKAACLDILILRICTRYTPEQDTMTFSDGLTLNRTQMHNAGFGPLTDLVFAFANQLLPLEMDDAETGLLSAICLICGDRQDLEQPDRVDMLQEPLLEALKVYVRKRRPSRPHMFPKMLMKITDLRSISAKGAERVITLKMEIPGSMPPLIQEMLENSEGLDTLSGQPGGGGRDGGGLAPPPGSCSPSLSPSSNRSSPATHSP
# Protocol: as §1, §2
# EcR/usp heterodimer = biological target: T4, EcR/usp heterodimer (Drosophila melanogaster, UniProt P34021;P20153 P34021:1-878,P20153:1-508); assay: competition; does not compete hsp27-EcRE binding
# T4 sequence 1: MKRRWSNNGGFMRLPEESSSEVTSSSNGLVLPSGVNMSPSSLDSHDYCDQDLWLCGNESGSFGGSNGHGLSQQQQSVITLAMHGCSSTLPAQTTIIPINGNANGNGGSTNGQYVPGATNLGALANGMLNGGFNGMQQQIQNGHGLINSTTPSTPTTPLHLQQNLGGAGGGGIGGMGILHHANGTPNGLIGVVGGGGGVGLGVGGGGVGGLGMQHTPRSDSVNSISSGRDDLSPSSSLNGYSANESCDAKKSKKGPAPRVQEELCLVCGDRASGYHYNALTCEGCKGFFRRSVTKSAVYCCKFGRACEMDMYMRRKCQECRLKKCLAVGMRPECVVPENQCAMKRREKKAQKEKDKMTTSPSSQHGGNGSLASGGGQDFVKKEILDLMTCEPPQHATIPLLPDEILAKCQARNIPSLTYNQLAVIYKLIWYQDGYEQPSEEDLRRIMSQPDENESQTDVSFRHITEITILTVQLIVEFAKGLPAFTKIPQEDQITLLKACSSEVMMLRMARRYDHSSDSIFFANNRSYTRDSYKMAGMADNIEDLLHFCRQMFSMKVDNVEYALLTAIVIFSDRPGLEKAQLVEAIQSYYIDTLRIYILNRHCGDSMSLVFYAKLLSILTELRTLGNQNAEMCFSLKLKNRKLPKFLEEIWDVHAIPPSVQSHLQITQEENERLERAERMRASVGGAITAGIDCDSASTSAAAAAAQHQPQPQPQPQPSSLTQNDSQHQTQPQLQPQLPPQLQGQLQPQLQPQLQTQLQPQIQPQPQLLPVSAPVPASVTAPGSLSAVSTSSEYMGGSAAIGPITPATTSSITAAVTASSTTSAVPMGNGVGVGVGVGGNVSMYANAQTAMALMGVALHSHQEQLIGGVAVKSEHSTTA
# T4 sequence 2: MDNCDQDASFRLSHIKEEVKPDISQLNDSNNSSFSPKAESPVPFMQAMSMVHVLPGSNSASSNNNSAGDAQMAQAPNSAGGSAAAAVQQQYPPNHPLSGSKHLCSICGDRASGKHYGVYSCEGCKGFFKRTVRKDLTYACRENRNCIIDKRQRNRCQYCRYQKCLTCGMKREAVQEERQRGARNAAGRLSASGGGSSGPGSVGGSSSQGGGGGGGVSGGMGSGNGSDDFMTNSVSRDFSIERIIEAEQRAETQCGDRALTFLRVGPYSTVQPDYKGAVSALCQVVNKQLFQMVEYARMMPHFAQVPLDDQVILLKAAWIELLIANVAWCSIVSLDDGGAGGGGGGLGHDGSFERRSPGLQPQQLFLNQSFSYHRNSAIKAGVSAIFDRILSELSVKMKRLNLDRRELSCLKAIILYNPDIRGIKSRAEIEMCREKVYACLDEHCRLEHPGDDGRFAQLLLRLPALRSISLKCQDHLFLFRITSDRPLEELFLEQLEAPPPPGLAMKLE
Binder,binding result (ultraspiracle (usp)),binding result (RARα (human)),binding result (usp/RARα heterodimer),binding result (EcR/usp heterodimer)
B1,no binding,no binding,binds,
B2,,,,no binding
